Experimental data taken from US20240400715A1 (VIBRANT PHARMA, published 2024).
Substitutions are numbered along the chain they refer to.

B1: 101 (Fab-Knob+CEA-Hole) (bispecific antibody, human IgG4 S228P, kappa, F234A L235A)
heavy: EVKLLESGGGLVQPKGSLKLSCAASGFTFNTYAMNWVRQAPGKGLEWVARIRSKYNNYATYYADSVKDRFTISRDDSQSILYLQMNNLKTEDTAMYYCVRHGNFGNSYVSWFAYWGQGTLVTVSSASTKGPSVFPLAPCSRSTSESTAALGCLVKDYFPEPVTVSWNSGALTSGVHTFPAVLQSSGLYSLSSVVTVPSSSLGTKTYTCNVDHKPSNTKVDKRVESKYGPPCPPCPAPEAAGGPSVFLFPPKPKDTLMISRTPEVTCVVVDVSQEDPEVQFNWYVDGVEVHNAKTKPREEQFNSTYRVVSVLTVLHQDWLNGKEYKCKVSNKGLPSSIEKTISKAKGQPREPQVYTLPPCQEEMTKNQVSLWCLVKGFYPSDIAVEWESNGQPENNYKTTPPVLDSDGSFFLYSRLTVDKSRWQEGNVFSCSVMHEALHNHYTQKSLSLSL
chain: EVQLVESGGGFVQAGESLTLSCTSSTLTFTPYRMAWYRQAPGKQRDLVADISSGDGRTTNYADFAKGRFTISRDNIKNTVFLRMTNLKPEDTAVYYCNTFVSFVGIARSWGQGTQVTVSSESKYGPPCPPCPAPEAAGGPSVFLFPPKPKDTLMISRTPEVTCVVVDVSQEDPEVQFNWYVDGVEVHNAKTKPREEQFNSTYRVVSVLTVLHQDWLNGKEYKCKVSNKGLPSSIEKTISKAKGQPREPQVCTLPPSQEEMTKNQVSLSCAVKGFYPSDIAVEWESNGQPENNYKTTPPVLDSDGSFFLVSRLTVDKSRWQEGNVFSCSVMHEALHNRFTQKSLSLSL
light: QAVVTQESALTTSPGETVTLTCRSSTGAVTTSNYANWVQEKPDHLFTGLIGGTNKRAPGVPARFSGSLIGDKAALTITGAQTEDEAIYFCALWYSNLWVFGGGTKVEIKRTVAAPSVFIFPPSDEQLKSGTASVVCLLNNFYPREAKVQWKVDNALQSGNSQESVTEQDSKDSTYSLSSTLTLSKADYEKHKVYACEVTHQGLSSPVTKSFNRGEC
notes: TA1 anti-CD3 Fab, C17 anti-CEA VHH, human IgG4 Fc knob-into-hole
B2: 104 (CEA-Knob+Fab-Hole) (bispecific antibody, human IgG4 S228P, kappa, F234A L235A)
chain: B1 chain with C251Y, S256C, S268W, A270L, V309Y, R337H, F338Y
heavy: B1 heavy with Y354C, C359S, W371S, L373A, Y412V, H440R, Y441F
light: B1 light
notes: TA1 Fab, C17 VHH, IgG4 Fc KIH
B3: 106 (Knob+Fab-Hole-CEA) (bispecific antibody, human IgG4 S228P, kappa, F234A L235A)
chain: ESKYGPPCPPCPAPEAAGGPSVFLFPPKPKDTLMISRTPEVTCVVVDVSQEDPEVQFNWYVDGVEVHNAKTKPREEQFNSTYRVVSVLTVLHQDWLNGKEYKCKVSNKGLPSSIEKTISKAKGQPREPQVYTLPPCQEEMTKNQVSLWCLVKGFYPSDIAVEWESNGQPENNYKTTPPVLDSDGSFFLYSRLTVDKSRWQEGNVFSCSVMHEALHNHYTQKSLSLSL
heavy: EVKLLESGGGLVQPKGSLKLSCAASGFTFNTYAMNWVRQAPGKGLEWVARIRSKYNNYATYYADSVKDRFTISRDDSQSILYLQMNNLKTEDTAMYYCVRHGNFGNSYVSWFAYWGQGTLVTVSSASTKGPSVFPLAPCSRSTSESTAALGCLVKDYFPEPVTVSWNSGALTSGVHTFPAVLQSSGLYSLSSVVTVPSSSLGTKTYTCNVDHKPSNTKVDKRVESKYGPPCPPCPAPEAAGGPSVFLFPPKPKDTLMISRTPEVTCVVVDVSQEDPEVQFNWYVDGVEVHNAKTKPREEQFNSTYRVVSVLTVLHQDWLNGKEYKCKVSNKGLPSSIEKTISKAKGQPREPQVCTLPPSQEEMTKNQVSLSCAVKGFYPSDIAVEWESNGQPENNYKTTPPVLDSDGSFFLVSRLTVDKSRWQEGNVFSCSVMHEALHNRFTQKSLSLSLGGGGSGGGGSEVQLVESGGGFVQAGESLTLSCTSSTLTFTPYRMAWYRQAPGKQRDLVADISSGDGRTTNYADFAKGRFTISRDNIKNTVFLRMTNLKPEDTAVYYCNTFVSFVGIARSWGQGTQVTVSS
light: B1 light
notes: TA1 Fab, C17 VHH, IgG4 Fc KIH
B4: 103 (Fab-Knob+Hole-CEA) (bispecific antibody, human IgG4 S228P, kappa, F234A L235A)
heavy: B1 heavy
chain: ESKYGPPCPPCPAPEAAGGPSVFLFPPKPKDTLMISRTPEVTCVVVDVSQEDPEVQFNWYVDGVEVHNAKTKPREEQFNSTYRVVSVLTVLHQDWLNGKEYKCKVSNKGLPSSIEKTISKAKGQPREPQVCTLPPSQEEMTKNQVSLSCAVKGFYPSDIAVEWESNGQPENNYKTTPPVLDSDGSFFLVSRLTVDKSRWQEGNVFSCSVMHEALHNRFTQKSLSLSLGGGGSGGGGSEVQLVESGGGFVQAGESLTLSCTSSTLTFTPYRMAWYRQAPGKQRDLVADISSGDGRTTNYADFAKGRFTISRDNIKNTVFLRMTNLKPEDTAVYYCNTFVSFVGIARSWGQGTQVTVSS
light: B1 light
notes: TA1 Fab, C17 VHH, IgG4 Fc KIH
B5: 105 (Knob-CEA+Fab-Hole) (bispecific antibody, human IgG4 S228P, kappa, F234A L235A)
chain: B4 chain with C131Y, S136C, S148W, A150L, V189Y, R217H, F218Y
heavy: B1 heavy with Y354C, C359S, W371S, L373A, Y412V, H440R, Y441F
light: B1 light
notes: TA1 Fab, C17 VHH, IgG4 Fc KIH
B6: 102 (Fab-Knob-CEA+Hole) (bispecific antibody, human IgG4 S228P, kappa, F234A L235A)
heavy: B3 heavy with C354Y, S359C, S371W, A373L, V412Y, R440H, F441Y
chain: B3 chain with Y131C, C136S, W148S, L150A, Y189V, H217R, Y218F
light: B1 light
notes: TA1 Fab, C17 VHH, IgG4 Fc KIH

biological target: T1, human CD3ε/δ (ACRO systems, CDD-H52W1) (human, UniProt P07766 23-126; P04234 22-105); assay: serum-stability ELISA, Day 7 vs Day 0
T1 construct: bought recombinant heterodimer; also called human CD3 epsilon/delta; Human CD3ε/CD3δ
Procedure: (§1) The samples to be tested were centrifuged at 4° C. at 12000 rpm for 30 minutes to remove the precipitate. 200 μl of each sample to be tested (0.5 mg/ml) was collected in a 1.5 ml Eppendorf tube. An equal volume of human serum (GEMINI, H2OYOOK) was added, mixed thoroughly, and the mixture was incubated in a 37° C. constant temperature CO₂ incubator. For a total of 10 days, 40 μl samples was aspirated every day and stored at −20° C.
(§2) Enzyme-linked immunosorbent assay (ELISA) was used to test the bispecific antibodies' binding to human CEA and human CD3 epsilon/delta antigen. The steps are as follows: the antigen human CD3ε/δ (ACRO systems, CDD-H52W1) and the recombinant tumor antigen human CEA (CEACAM-5/CD66e, ACRO systems, CE5-H5226) were diluted to 1 μg/ml with PBS, and then added to the 96-well plate at 100 μl per well. The wells were coated overnight at 4° C. After washing 3 times with 0.05% PBST, 200 μl 5% skimmed milk powder was added to each well and incubated at 37° C. for 2 h. After washing 3 times with 0.05% PBST, 100 μl primary antibody sample (10 μg/ml) was added to each well, and incubated at 37° C. for 2 h. After washing 3 times with 0.05% PBST, 100 μl (1:6000) diluted secondary antibody goat anti-human Fc-HRP (sigma, A2170) was added to each well, incubated at room temperature for 1 h. After washing 8 times with 0.05% PBST, 50 μl TMB color developing solution was added to each well, and incubated at room temperature for 10-15 min. 50 μl 1 mM HCl was added to each well to stop the color development. 450 nm Absorbance (OD) was read.
(§3) The binding of antibodies to antigen was calculated according to the following formula: Binding (%)=[(ODdayn−ODb)/(ODday0−ODb)]×100%. ODdayn: experimental well (the protein was stored in the serum for n days); ODday0: control well (the protein was not stored in the serum); ODb: blank well (no primary antibody added).

B1 was tested. Which Binding % did it give?
The Binding % was 100%.

With B2 as the binder, how does the Binding % read?
The Binding % was 103%.

How did the Binding % turn out when B3 was run?
The Binding % was 118%.

With B4 as the binder, how does the Binding % read?
Its Binding % is 107%.

B5 was tested. Which Binding % did it give?
The Binding % was 101%.

For B6, which Binding % is on record?
The Binding % was 105%.

biological target: T1, human CD3ε/δ (ACRO systems, CDD-H52W1); assay: serum-stability ELISA, Day 0 (reference)
Procedure: as §1, §2, §3

How did the Binding % turn out when B1 was run?
Its Binding % is 100%.

Which Binding % does the source give for B2 here?
Its Binding % is 100%.

With B3 as the binder, how does the Binding % read?
The Binding % was 100%.

With B4 as the binder, how does the Binding % read?
The Binding % was 100%.

Which Binding % does the source give for B5 here?
Its Binding % is 100%.

With B6 as the binder, how does the Binding % read?
The Binding % was 100%.

biological target: T1, human CD3ε/δ (ACRO systems, CDD-H52W1); assay: serum-stability ELISA, Day 5 vs Day 0
Procedure: as §1, §2, §3

Which Binding % does the source give for B1 here?
Its Binding % is 99.2%.

How did the Binding % turn out when B2 was run?
Its Binding % is 104%.

Which Binding % does the source give for B3 here?
The Binding % was 116%.

How did the Binding % turn out when B4 was run?
Its Binding % is 105%.

How did the Binding % turn out when B5 was run?
The Binding % was 107%.

How did the Binding % turn out when B6 was run?
The Binding % was 108%.

biological target: T1, human CD3ε/δ (ACRO systems, CDD-H52W1); assay: serum-stability ELISA, Day 2 vs Day 0
Procedure: as §1, §2, §3

B1 was tested. Which Binding % did it give?
Its Binding % is 101%.

How did the Binding % turn out when B2 was run?
Its Binding % is 110%.

How did the Binding % turn out when B3 was run?
The Binding % was 115%.

With B4 as the binder, how does the Binding % read?
Its Binding % is 106%.

How did the Binding % turn out when B5 was run?
The Binding % was 106%.

B6 was tested. Which Binding % did it give?
The Binding % was 111%.

biological target: T1, human CD3ε/δ (ACRO systems, CDD-H52W1); assay: serum-stability ELISA, Day 9 vs Day 0
Procedure: as §1, §2, §3

Which Binding % does the source give for B1 here?
The Binding % was 102%.

Which Binding % does the source give for B2 here?
Its Binding % is 108%.

Which Binding % does the source give for B3 here?
The Binding % was 112%.

For B4, which Binding % is on record?
Its Binding % is 103%.

How did the Binding % turn out when B5 was run?
The Binding % was 105%.

For B6, which Binding % is on record?
The Binding % was 100%.

biological target: T1, human CD3ε/δ (ACRO systems, CDD-H52W1); assay: serum-stability ELISA, Day 6 vs Day 0
Procedure: as §1, §2, §3

How did the Binding % turn out when B1 was run?
Its Binding % is 103%.

With B2 as the binder, how does the Binding % read?
Its Binding % is 104%.

Which Binding % does the source give for B3 here?
Its Binding % is 122%.

B4 was tested. Which Binding % did it give?
Its Binding % is 105%.

With B5 as the binder, how does the Binding % read?
Its Binding % is 104%.

For B6, which Binding % is on record?
The Binding % was 110%.

biological target: T1, human CD3ε/δ (ACRO systems, CDD-H52W1); assay: serum-stability ELISA, Day 1 vs Day 0
Procedure: as §1, §2, §3

With B1 as the binder, how does the Binding % read?
Its Binding % is 98.5%.

How did the Binding % turn out when B2 was run?
Its Binding % is 107%.

For B3, which Binding % is on record?
The Binding % was 111%.

B4 was tested. Which Binding % did it give?
The Binding % was 101%.

For B5, which Binding % is on record?
Its Binding % is 103%.

With B6 as the binder, how does the Binding % read?
Its Binding % is 106%.

biological target: T1, human CD3ε/δ (ACRO systems, CDD-H52W1); assay: serum-stability ELISA, Day 10 vs Day 0
Procedure: as §1, §2, §3

For B1, which Binding % is on record?
The Binding % was 101%.

B2 was tested. Which Binding % did it give?
The Binding % was 107%.

B3 was tested. Which Binding % did it give?
The Binding % was 106%.

B4 was tested. Which Binding % did it give?
Its Binding % is 100%.

How did the Binding % turn out when B5 was run?
The Binding % was 99.2%.

With B6 as the binder, how does the Binding % read?
Its Binding % is 102%.
